Source: patent US20240368242A1

Key:
[1] = biological target: murine OX40 expressed on CHOK1 cells (CHOK1/mOX40) (murine) (UniProt P47741); experiment: flow cytometry on CHOK1-mOX40 cells
[2] = biological target: recombinant human CD47 protein (human) (UniProt Q08722); experiment: SPR, binding to human CD47
[3] = biological target: FcRn-His (Example 11); experiment: SPR (BioRad ProteOn XPR 360), His-tagged target chip-bound
[4] = biological target: Human FcRn (human) (UniProt P55899); experiment: SPR, binding to human FcRn
[5] = biological target: Human FcγR1A; experiment: SPR, binding to human FcγR1A
Chain of Human FcγR1A (chain, as listed by the source limits assumed): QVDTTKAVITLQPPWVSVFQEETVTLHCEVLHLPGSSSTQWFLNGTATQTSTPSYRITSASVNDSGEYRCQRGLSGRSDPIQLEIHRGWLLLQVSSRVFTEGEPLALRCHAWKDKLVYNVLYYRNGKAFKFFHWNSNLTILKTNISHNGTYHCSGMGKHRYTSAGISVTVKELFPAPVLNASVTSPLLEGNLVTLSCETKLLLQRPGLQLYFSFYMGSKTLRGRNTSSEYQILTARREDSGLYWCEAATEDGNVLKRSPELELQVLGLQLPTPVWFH

Chain of recombinant human CD47 protein (human) (Q08722 19-139 limits assumed): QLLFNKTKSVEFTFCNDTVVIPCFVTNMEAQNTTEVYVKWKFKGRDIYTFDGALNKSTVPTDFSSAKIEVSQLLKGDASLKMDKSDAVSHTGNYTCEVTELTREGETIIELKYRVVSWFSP
Chain of FcRn-His (Example 11) (Q61559 22-297, chain 1 of 2): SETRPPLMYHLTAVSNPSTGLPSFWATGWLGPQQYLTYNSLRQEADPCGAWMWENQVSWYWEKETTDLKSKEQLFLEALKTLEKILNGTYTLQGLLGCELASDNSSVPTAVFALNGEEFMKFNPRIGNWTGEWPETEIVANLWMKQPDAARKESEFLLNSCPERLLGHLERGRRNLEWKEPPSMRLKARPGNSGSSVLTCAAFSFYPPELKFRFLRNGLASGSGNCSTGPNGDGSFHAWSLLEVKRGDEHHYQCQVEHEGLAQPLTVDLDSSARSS
Chain of FcRn-His (Example 11) (P01887 21-119, chain 2 of 2, further chain): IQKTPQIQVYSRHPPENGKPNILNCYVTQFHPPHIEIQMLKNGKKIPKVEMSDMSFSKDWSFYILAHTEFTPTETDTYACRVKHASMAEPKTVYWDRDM
Chain of Human FcRn (human) (P55899 24-297 limits assumed, chain 1 of 2): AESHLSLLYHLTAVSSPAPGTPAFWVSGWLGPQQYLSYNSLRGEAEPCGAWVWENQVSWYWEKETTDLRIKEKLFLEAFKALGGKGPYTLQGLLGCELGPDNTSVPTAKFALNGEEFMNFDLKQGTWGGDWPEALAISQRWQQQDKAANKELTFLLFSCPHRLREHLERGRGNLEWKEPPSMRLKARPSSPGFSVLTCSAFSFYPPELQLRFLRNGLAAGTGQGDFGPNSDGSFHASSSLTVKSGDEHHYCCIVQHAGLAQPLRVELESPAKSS
Chain of Human FcRn (human) (chain, as listed by the source limits assumed, chain 2 of 2): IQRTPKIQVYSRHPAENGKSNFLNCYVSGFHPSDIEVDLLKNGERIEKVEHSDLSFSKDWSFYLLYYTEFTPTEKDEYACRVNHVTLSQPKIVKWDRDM
Chain of murine OX40 expressed on CHOK1 cells (CHOK1/mOX40) (murine) (P47741 20-272): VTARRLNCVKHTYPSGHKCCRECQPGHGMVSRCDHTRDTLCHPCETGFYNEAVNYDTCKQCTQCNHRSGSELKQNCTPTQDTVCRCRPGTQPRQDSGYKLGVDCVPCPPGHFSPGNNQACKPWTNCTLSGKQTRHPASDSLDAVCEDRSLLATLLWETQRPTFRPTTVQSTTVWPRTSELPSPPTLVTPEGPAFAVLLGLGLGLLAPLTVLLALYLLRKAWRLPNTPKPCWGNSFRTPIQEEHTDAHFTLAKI

Work on “murine TIM3-Fc-OX40L chimeric protein (from UniProt Q8VIM0 20-193; P43488 51-198) (Fc fusion)” yielded an affinity (cell binding assay) [1] of 15.2 nM.
CD172a-Fc Cntl (Fc fusion) showed a Kd [2] of 3.16 nM, a koff [2] of 0.00239 s⁻¹ and a kon [2] of 756000 M⁻¹ s⁻¹.
“IgG2A (control protein, Example 11) (antibody)” was tested, and the Kd [3] was 8.08 nM, the koff [3] was 0.0242 s⁻¹ and the kon [3] was 3e+06 M⁻¹ s⁻¹.
For IgG1 (antibody), the koff [4] was 0.0046 s⁻¹, the kon [4] was 945000 M⁻¹ s⁻¹ and the koff [5] was 0.00044 s⁻¹. It also gave a kon [5] of 24900 M⁻¹ s⁻¹.
